Earlier results in PMC4105053.

Legend:
[1] = target: MMOR Fd (Methylococcus capsulatus) (UniProt P22868)
[2] = target: MMOB (Methylococcus capsulatus) (UniProt P18797)
Chain of MMOB (Methylococcus capsulatus) (P18797 whole entry): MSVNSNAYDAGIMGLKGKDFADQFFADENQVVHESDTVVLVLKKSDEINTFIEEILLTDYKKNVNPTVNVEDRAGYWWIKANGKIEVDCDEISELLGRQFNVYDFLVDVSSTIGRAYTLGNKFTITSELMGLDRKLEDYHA

Chain of MMOH (P22869 whole entry): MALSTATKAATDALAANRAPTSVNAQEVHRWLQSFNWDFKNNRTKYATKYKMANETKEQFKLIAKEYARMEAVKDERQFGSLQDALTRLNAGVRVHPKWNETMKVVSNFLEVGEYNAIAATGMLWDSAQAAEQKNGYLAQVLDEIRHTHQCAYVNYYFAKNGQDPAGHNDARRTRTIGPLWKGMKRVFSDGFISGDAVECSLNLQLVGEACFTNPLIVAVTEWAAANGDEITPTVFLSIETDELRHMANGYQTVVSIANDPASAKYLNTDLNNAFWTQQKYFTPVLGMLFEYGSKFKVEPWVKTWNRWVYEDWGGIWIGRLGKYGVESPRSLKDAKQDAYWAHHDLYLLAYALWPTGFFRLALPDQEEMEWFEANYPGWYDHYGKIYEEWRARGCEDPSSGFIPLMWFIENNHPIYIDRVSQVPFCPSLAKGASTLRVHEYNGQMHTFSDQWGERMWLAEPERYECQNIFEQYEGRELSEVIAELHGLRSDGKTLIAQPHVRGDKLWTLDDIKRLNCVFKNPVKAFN
Chain of MMOH (P18798 2-389, further chain): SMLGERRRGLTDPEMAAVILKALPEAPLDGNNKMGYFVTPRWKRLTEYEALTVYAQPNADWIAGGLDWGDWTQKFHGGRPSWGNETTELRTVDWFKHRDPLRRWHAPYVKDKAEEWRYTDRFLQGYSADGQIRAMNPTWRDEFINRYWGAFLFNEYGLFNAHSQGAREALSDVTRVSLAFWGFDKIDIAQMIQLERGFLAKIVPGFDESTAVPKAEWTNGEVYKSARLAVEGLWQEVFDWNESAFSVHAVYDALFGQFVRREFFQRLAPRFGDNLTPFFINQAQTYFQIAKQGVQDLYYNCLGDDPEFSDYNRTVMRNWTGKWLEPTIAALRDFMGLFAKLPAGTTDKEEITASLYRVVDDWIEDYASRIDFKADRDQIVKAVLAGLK
Chain of MMOH (P11987 2-170, further chain): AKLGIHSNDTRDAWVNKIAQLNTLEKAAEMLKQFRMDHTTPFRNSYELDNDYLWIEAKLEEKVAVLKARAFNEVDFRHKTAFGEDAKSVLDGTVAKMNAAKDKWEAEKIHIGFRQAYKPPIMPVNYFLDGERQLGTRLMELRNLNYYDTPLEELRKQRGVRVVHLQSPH
Chain of MMOR Fd (Methylococcus capsulatus) (P22868 1-98): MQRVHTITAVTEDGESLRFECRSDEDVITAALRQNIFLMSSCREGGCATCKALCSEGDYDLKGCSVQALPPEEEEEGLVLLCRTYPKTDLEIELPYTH

Kd [1]: 900 nM
Kd [2]: 550 nM
Substance: MMOH (from UniProt P22869)
